{
  "source": "patent US20100260668A1",
  "about": "(published 2010)",
  "key": {"VEGF 1-165 aa": {"target": "T1, VEGF 1-165 aa (UniProt P15692 27-191)", "T1 construct": "Bought antigen coated on the ELISA plate", "T1 sequence (P15692 other isoform, or with tags, fused parts or gaps limits assumed)": "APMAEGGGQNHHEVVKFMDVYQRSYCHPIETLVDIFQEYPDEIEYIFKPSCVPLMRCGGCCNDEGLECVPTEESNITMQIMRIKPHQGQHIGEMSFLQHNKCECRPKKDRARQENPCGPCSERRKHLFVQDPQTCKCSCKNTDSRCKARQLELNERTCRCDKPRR", "assay": "direct bind ELISA (C-term VD)", "description": "Enzyme Linked Immunosorbent Assays to screen for antibodies that bind a desired target antigen were performed as follows. […] Plates were washed four times with PBS containing 0.02% Tween 20. Plates were blocked by the addition of 300 μL/well blocking solution (non-fat dry milk powder, various retail suppliers, diluted to 2% in PBS) for ½ hour at room temperature. Plates were washed four times after blocking with PBS containing 0.02% Tween 20.\nAlternatively, one hundred microliters per well of 10 μg/ml of Histidine (His) tagged desired target antigen (R&D Systems, Minneapolis, Minn.) was added to ELISA plates coated with monoclonal mouse anti-polyHistidine antibody as described above and incubated for 1 hour at room temperature. Wells were washed four times with PBS containing 0.02% Tween 20.\nPlates were washed 4 times with PBS containing 0.02% Tween 20."}, "HGF-His tag": {"target": "T2, HGF-His tag (UniProt P14210 32-728)", "T2 construct": "Bought antigen coated on the ELISA plate; not shown: His tag", "T2 sequence (P14210 32-728 limits assumed)": "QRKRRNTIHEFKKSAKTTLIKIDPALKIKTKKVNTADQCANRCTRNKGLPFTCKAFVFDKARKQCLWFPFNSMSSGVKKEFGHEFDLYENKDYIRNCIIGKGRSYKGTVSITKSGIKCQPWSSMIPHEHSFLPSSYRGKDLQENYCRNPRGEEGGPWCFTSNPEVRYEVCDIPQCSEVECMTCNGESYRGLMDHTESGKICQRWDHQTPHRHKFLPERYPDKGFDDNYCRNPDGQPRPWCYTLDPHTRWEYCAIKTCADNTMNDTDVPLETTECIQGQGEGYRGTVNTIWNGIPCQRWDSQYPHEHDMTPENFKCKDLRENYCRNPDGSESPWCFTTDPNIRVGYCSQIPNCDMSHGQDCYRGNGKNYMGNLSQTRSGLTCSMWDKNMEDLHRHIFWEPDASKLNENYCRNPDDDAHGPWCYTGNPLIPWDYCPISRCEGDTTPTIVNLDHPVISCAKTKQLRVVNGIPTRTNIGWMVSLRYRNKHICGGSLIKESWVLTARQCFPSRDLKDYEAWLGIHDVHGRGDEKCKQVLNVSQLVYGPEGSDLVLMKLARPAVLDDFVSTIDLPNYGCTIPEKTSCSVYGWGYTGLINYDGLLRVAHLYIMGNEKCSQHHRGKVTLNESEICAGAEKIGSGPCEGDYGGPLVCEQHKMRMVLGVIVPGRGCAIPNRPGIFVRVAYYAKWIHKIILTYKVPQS", "assay": "direct bind ELISA (N-term VD);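 also: ELISA screen of antibodies for binding to plate-immobilized target antigen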"}},
  "data": [
    {"binder": "DVD649 (bispecific antibody, human IgG1, kappa, DVD-Ig; HC linker long, LC linker short; vectors V1/V2) heavy: not shown light: DIQMTQSPSSVSASVGDRVTITCRASQGISSWLAWYQQKPGKAPNLLIYEASSLQSGVPSRFGGSGSGTDFTLTISSLQPEDFATYYCQQANGFPWTFGQGTKVEIKRTVAAPDIQMTQSPSSLSASVGDRVTITCRASQDVSTAVAWYQQKPGKAPKLLIYSASFLYSGVPSRFSGSGSGTDFTLTISSLQPEDFATYYCQQSYTTPPTFGQGTKVEIKRTVAAPSVFIFPPSDEQLKSGTASVVCLLNNFYPREAKVQWKVDNALQSGNSQESVTEQDSKDSTYSLSSTLTLSKADYEKHKVYACEVTHQGLSSPVTKSFNRGEC", "values": [
      {"measurement": "EC50", "setting": "VEGF 1-165 aa", "result": 186, "unit": "nM"},
      {"measurement": "EC50", "setting": "HGF-His tag", "result": 0.15, "unit": "nM"}
    ]},
    {"binder": "DVD657 (bispecific antibody, human IgG1, kappa, DVD-Ig; N-term VD AB012 (HGF), C-term VD AB071 (VEGF); HC linker short, LC linker long; vectors V1/V2) heavy: not shown light: DIQMTQSPSSVSASVGDRVTITCRASQGISSWLAWYQQKPGKAPNLLIYEASSLQSGVPSRFGGSGSGTDFTLTISSLQPEDFATYYCQQANGFPWTFGQGTKVEIKRTVAAPSVFIFPPDIQMTQSPSSLSASVGDRVTITCRASQVIRRSLAWYQQKPGKAPKLLIYAASNLASGVPSRFSGSGSGTDFTLTISSLQPEDFATYYCQQSNTSPLTFGQGTKVEIKRTVAAPSVFIFPPSDEQLKSGTASVVCLLNNFYPREAKVQWKVDNALQSGNSQESVTEQDSKDSTYSLSSTLTLSKADYEKHKVYACEVTHQGLSSPVTKSFNRGEC", "values": [
      {"measurement": "EC50", "setting": "VEGF 1-165 aa", "result": 358, "unit": "nM"},
      {"measurement": "EC50", "setting": "HGF-His tag", "result": 0.31, "unit": "nM"}
    ]},
    {"binder": "DVD661 (bispecific antibody, human IgG1, kappa, DVD-Ig; HC linker short, LC linker short; vectors V1/V2) heavy: not shown light: DIQMTQSPSSLSASVGDRVTITCKASENVVSYVSWYQQKPGKAPKLLIYGASNRNTGVPSRFSGSGSGTDFTLTISSLQPEDFATYYCGQSYNYPYTFGQGTKLEIKRTVAAPDIQMTQSPSSLSASVGDRVTITCRASQDVSTAVAWYQQKPGKAPKLLIYSASFLYSGVPSRFSGSGSGTDFTLTISSLQPEDFATYYCQQSYTTPPTFGQGTKVEIKRTVAAPSVFIFPPSDEQLKSGTASVVCLLNNFYPREAKVQWKVDNALQSGNSQESVTEQDSKDSTYSLSSTLTLSKADYEKHKVYACEVTHQGLSSPVTKSFNRGEC", "values": [
      {"measurement": "EC50", "setting": "VEGF 1-165 aa", "result": 566, "unit": "nM"},
      {"measurement": "EC50", "setting": "HGF-His tag", "result": 0.7, "unit": "nM"}
    ]},
    {"binder": "DVD643 (bispecific antibody, human IgG1, kappa, DVD-Ig; HC linker long, LC linker long; vectors V1/V2) heavy: not shown light: DIQMTQSPSSVSASVGDRVTITCRASQGISSWLAWYQQKPGKAPNLLIYEASSLQSGVPSRFGGSGSGTDFTLTISSLQPEDFATYYCQQANGFPWTFGQGTKVEIKRTVAAPSVFIFPPDIQMTQSPSSLSASVGDRVTITCRASQDVSTAVAWYQQKPGKAPKLLIYSASFLYSGVPSRFSGSGSGTDFTLTISSLQPEDFATYYCQQSYTTPPTFGQGTKVEIKRTVAAPSVFIFPPSDEQLKSGTASVVCLLNNFYPREAKVQWKVDNALQSGNSQESVTEQDSKDSTYSLSSTLTLSKADYEKHKVYACEVTHQGLSSPVTKSFNRGEC", "values": [
      {"measurement": "EC50", "setting": "VEGF 1-165 aa", "result": 175, "unit": "nM"},
      {"measurement": "EC50", "setting": "HGF-His tag", "result": 0.26, "unit": "nM"}
    ]},
    {"binder": "DVD655 (bispecific antibody, human IgG1, kappa, DVD-Ig; HC linker short, LC linker long; vectors V1/V2) heavy: not shown light: DIQMTQSPSSVSASVGDRVTITCRASQGISSWLAWYQQKPGKAPNLLIYEASSLQSGVPSRFGGSGSGTDFTLTISSLQPEDFATYYCQQANGFPWTFGQGTKVEIKRTVAAPSVFIFPPDIQMTQSPSSLSASVGDRVTITCRASQDVSTAVAWYQQKPGKAPKLLIYSASFLYSGVPSRFSGSGSGTDFTLTISSLQPEDFATYYCQQSYTTPPTFGQGTKVEIKRTVAAPSVFIFPPSDEQLKSGTASVVCLLNNFYPREAKVQWKVDNALQSGNSQESVTEQDSKDSTYSLSSTLTLSKADYEKHKVYACEVTHQGLSSPVTKSFNRGEC", "values": [
      {"measurement": "EC50", "setting": "VEGF 1-165 aa", "result": 92.9, "unit": "nM"},
      {"measurement": "EC50", "setting": "HGF-His tag", "result": 0.19, "unit": "nM"}
    ]},
    {"binder": "DVD651 (bispecific antibody, human IgG1, kappa, DVD-Ig; N-term VD AB012 (HGF), C-term VD AB071 (VEGF); HC linker long, LC linker short; vectors V1/V2) heavy: not shown light: DIQMTQSPSSVSASVGDRVTITCRASQGISSWLAWYQQKPGKAPNLLIYEASSLQSGVPSRFGGSGSGTDFTLTISSLQPEDFATYYCQQANGFPWTFGQGTKVEIKRTVAAPDIQMTQSPSSLSASVGDRVTITCRASQVIRRSLAWYQQKPGKAPKLLIYAASNLASGVPSRFSGSGSGTDFTLTISSLQPEDFATYYCQQSNTSPLTFGQGTKVEIKRTVAAPSVFIFPPSDEQLKSGTASVVCLLNNFYPREAKVQWKVDNALQSGNSQESVTEQDSKDSTYSLSSTLTLSKADYEKHKVYACEVTHQGLSSPVTKSFNRGEC", "values": [
      {"measurement": "EC50", "setting": "VEGF 1-165 aa", "result": 341, "unit": "nM"},
      {"measurement": "EC50", "setting": "HGF-His tag", "result": 0.11, "unit": "nM"}
    ]}
  ]
}
